We go through one substance from paper PMC8423076.

The target in the assay is SARS-CoV-2 receptor-binding domain (RBD) homodimer (SARS-CoV-2) (UniProt P0DTC2). The assay can be described thus: reducing and non-reducing SDS-PAGE.

The substance “SARS-CoV-2 receptor-binding domain (RBD) homodimer (from UniProt P0DTC2 319-541) (domain or fragment)” had a stoichiometry N of 2.

As usually defined, the stoichiometry N is a count of units in the complex or per binding partner.
